Assay results from US20140162292A1 (TOKYO METROPOLITAN INSTITUTE OF MEDICAL SCIENCE, published 2014).
Where no end group is shown, it is not given here. [ ]: non-standard residue; d: D form. pS = N[C@@H](COP(=O)(O)O)C(=O)O

Columns and labels:
[1] = target: T1, mouse Keap1-DC (aa321-609) (mouse, UniProt Q9Z2X8 321-609); assay: isothermal titration calorimetry
T1 construct: also called Keap1-DC domain
Method: (§1) First, isothermal titration calorimetry was performed using MicroCal iTC₂₀₀ System (GE Healthcare) at 25° C. […] The binding data were analyzed using Origin 7 software (GE healthcare).

[2] = target: T1, mouse Keap1-DC (aa321-609); assay: isothermal titration calorimetry, 25 C, peptide injected into Keap1-DC
Method: as §1

T1 sequence (Q9Z2X8 321-609 limits assumed): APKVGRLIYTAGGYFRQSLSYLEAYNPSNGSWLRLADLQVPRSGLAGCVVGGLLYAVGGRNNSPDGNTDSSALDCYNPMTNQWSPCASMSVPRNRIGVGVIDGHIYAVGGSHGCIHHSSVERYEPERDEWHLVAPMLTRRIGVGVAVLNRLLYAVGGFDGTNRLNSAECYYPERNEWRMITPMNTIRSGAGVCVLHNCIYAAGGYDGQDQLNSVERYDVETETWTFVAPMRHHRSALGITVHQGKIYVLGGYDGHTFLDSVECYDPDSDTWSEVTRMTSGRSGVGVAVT

B1: phosphorylated KIR (VDP(pS)TGELQ) of mouse p62 (peptide)
peptide: VDP[pS]TGELQ
notes: also called phosphorylated p62-KIR; KIR in mouse phosphorylated p62
Question: B1 was tested. Which “fold binding affinity against KIR in the non-phosphorylated p62” value [1] did it give?
Answer: The value was ~100 times.

Question: What about the Ka [2] of the same binder?
Answer: The Ka was 5.12e+06 M⁻¹.

B2: Nrf2-ETGE motif (76-LDEETGEFL-84) of mouse Nrf2 (peptide)
peptide: LDEETGEFL
notes: also called ETGE motif of mouse Nrf2
Question: B2 was tested. Which Ka [2] did it give?
Answer: Its Ka is 6.83e+06 M⁻¹.

B3: non-phosphorylated KIR (348-VDPSTGELQ-356) of mouse p62 (peptide)
peptide: VDPSTGELQ
notes: also called non-phosphorylated p62-KIR; KIR in mouse non-phosphorylated p62
Question: How did the Ka [2] turn out when B3 was run?
Answer: Its Ka is 56700 M⁻¹.
